As a reminder, the Kd is a measure of binding affinity in units of concentration. Read a low Kd as a tighter complex. Usually koff stands for the rate constant with which the complex falls apart. Broadly, the kon is the rate constant with which the complex forms. A low value points to slow association.

Common to all, as to experiment: BLI
Assay [1] has as its target T1, human eye lens-specific protein 20, histidine-tagged (human) (UniProt P55344).
T1 sequence: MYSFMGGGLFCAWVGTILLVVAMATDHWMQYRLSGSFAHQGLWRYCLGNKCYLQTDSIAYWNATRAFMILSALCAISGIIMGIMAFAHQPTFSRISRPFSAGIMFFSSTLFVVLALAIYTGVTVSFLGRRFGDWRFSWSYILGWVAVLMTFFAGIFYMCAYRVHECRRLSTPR

Another assay deals with human occludin (Homo sapiens, UniProt Q16625).
human occludin, sequence (Q16625 whole entry, the tested form may be a part): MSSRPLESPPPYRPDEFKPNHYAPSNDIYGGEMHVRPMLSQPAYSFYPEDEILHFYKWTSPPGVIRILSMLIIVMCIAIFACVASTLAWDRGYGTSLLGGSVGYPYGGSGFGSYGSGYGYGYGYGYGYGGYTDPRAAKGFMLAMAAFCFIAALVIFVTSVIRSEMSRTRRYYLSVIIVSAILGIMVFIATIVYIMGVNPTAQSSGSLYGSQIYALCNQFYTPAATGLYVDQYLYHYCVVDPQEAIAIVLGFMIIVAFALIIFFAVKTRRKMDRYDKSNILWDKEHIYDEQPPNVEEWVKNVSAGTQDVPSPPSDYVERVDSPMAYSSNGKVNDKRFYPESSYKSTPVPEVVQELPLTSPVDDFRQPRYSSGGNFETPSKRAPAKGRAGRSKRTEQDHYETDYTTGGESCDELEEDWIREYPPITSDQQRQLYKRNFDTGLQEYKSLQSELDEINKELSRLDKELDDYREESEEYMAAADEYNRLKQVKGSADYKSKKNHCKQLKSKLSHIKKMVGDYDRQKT
In assay [2] the target is C-terminal domain of Clostridium perfringens enterotoxin, tag removed (Clostridium perfringens, UniProt P01558).
For assay [3], the target named is T2, human claudin-5 (human, UniProt O00501).
T2 sequence (O00501 whole entry): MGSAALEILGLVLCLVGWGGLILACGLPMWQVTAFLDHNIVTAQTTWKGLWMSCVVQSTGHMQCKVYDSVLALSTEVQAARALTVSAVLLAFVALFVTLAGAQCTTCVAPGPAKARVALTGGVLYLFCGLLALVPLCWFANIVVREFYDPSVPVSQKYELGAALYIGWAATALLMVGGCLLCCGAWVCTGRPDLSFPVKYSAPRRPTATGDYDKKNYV
For assay [4], the target named is T3, human claudin-6 (human, UniProt P56747).
The target in assay [5] is T4, human claudin-9 (human, UniProt O95484).
Assay [6] addresses T5, murine claudin-15 (mouse, UniProt Q9Z0S5).
Assay [7] concerns the target T6, human claudin-17 (human, UniProt P56750).
The target of assay [8] is T7, human claudin-18 splice variant 18.1 (human, UniProt P56856).
Assay [9] addresses T8, human claudin-18 splice variant 18.2 (human, UniProt P56856-2).
Assay [10] addresses T9, human claudin-19 (human, UniProt Q8N6F1).
The target of assay [11] is T10, human claudin-1 (human, UniProt O95832).
T10 sequence (O95832 whole entry): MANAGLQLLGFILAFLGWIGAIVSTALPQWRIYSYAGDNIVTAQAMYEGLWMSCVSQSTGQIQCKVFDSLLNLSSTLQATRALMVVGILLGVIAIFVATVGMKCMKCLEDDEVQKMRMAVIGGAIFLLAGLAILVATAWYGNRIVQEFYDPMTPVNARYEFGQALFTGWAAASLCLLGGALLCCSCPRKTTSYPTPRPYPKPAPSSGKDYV
Assay [12] deals with T11, human claudin-3 (human, UniProt O15551).
T11 sequence (O15551 whole entry): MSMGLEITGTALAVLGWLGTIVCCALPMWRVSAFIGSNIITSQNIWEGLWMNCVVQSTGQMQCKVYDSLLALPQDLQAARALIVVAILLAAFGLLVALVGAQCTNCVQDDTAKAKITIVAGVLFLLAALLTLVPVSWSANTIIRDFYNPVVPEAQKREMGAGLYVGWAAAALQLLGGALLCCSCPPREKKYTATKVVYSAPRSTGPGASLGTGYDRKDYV
A further assay has as its target murine claudin-3 (mouse, UniProt Q9Z0G9).
For assay [13], the target named is T12, human claudin-4 (human, UniProt O14493).
T12 sequence (O14493 whole entry): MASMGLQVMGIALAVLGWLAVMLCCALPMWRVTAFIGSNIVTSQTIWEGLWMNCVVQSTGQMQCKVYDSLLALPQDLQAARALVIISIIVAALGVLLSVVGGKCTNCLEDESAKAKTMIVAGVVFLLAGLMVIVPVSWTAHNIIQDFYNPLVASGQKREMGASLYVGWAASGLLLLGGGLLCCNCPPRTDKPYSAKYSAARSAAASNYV
In assay [14] the target is murine claudin-4 (mouse, UniProt O35054).
Assay [15] deals with T2, human claudin-5. This is another data set of the same source.
The target of assay [16] is T3, human claudin-6. This is another data set of the same source.
Assay [17] deals with T4, human claudin-9. This is another data set of the same source.
For assay [18], the target named is T5, murine claudin-15. This is another data set of the same source.
The target of assay [19] is T6, human claudin-17. The source holds these as a separate data set.
The target of assay [20] is T7, human claudin-18 splice variant 18.1. The source holds these as a separate data set.
Assay [21] addresses T8, human claudin-18 splice variant 18.2. The source holds these as a separate data set.
Assay [22] concerns the target T9, human claudin-19. This is another data set of the same source.
Assay [23] has as its target human peripheral myelin protein 22 (Homo sapiens, UniProt Q01453).
Assay [24] concerns the target Kune-kune from Drosophila melanogaster (Drosophila melanogaster, UniProt A1Z6H0).
Assay [25] concerns the target T10, human claudin-1. This is another data set of the same source.
Assay [26] deals with T11, human claudin-3. This is another data set of the same source.
The target in assay [27] is T12, human claudin-4. The source holds these as a separate data set.
For assay [28], the target named is T13, human claudin-6 (human, UniProt P56747 1-220).
T13 sequence: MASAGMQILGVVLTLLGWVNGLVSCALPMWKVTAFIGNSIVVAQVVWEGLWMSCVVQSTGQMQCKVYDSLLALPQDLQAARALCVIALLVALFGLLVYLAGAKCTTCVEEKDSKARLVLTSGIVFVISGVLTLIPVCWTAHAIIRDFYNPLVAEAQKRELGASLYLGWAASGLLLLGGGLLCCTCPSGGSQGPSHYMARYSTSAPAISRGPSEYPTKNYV

In assay [29] the target is T14, human claudin-9 (human, UniProt O95484 1-217).
T14 sequence: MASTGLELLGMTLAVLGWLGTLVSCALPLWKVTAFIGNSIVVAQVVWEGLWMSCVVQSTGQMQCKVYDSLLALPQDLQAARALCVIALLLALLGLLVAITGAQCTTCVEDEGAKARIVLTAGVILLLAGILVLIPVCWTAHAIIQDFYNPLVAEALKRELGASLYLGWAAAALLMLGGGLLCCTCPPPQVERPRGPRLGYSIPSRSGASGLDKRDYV

Assay [30] has as its target T15, human claudin-17 (human, UniProt P56750 1-224).
T15 sequence: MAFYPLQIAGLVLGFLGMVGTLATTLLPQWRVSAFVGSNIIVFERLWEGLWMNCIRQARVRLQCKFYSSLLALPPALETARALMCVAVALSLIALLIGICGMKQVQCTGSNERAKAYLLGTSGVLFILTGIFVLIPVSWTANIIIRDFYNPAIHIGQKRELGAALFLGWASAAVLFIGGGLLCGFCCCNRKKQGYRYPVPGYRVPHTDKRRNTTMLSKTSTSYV

Assay [31] deals with T16, human claudin-19 (human, UniProt Q8N6F1 1-224).
T16 sequence: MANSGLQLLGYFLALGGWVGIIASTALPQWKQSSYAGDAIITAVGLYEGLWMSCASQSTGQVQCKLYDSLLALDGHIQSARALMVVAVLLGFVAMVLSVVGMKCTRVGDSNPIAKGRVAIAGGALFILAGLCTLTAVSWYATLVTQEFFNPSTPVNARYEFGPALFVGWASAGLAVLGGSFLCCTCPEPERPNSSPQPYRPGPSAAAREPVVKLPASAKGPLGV

Assay [32] deals with T17, murine claudin-4 (mouse, UniProt O35054 1-210).
T17 sequence: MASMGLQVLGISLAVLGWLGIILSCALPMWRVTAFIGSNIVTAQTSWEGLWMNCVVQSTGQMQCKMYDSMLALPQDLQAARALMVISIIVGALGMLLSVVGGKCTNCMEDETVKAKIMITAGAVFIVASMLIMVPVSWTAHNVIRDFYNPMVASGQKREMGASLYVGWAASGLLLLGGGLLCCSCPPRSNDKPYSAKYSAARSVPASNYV

“And” between values parts separate entries of the source, which are not always exact repeats. Equal entries are not always repeated. Where two headings read alike, the source gives them in different places.

T5 sequence (Q9Z0S5 whole entry): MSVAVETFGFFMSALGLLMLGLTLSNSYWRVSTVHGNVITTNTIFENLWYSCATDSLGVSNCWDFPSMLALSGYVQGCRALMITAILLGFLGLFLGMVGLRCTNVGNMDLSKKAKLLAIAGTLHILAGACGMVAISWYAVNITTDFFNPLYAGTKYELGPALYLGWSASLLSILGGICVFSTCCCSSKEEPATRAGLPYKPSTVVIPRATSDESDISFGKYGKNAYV
human peripheral myelin protein 22, sequence (Q01453 whole entry): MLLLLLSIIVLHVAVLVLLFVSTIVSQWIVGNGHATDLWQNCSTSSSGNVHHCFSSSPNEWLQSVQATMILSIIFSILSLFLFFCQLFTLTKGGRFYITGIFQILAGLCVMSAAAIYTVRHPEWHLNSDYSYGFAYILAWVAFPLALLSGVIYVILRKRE
murine claudin-3, sequence (Q9Z0G9 whole entry): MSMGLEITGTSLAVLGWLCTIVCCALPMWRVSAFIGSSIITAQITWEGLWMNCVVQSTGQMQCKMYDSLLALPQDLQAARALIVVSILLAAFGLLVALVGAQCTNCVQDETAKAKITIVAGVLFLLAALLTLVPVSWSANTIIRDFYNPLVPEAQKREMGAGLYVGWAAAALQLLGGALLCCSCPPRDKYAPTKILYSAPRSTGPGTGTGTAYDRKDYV

B1: COP-1 synthetic antibody fragment (sFab) without histidine tag (Fab, V domains shown)
VH: EVQLVESGGGLVQPGGSLRLSCAASGFNFSSSYIHWVRQAPGKGLEWVASISSSSGSTSYADSVKGRFTISADTSKNTAYLQMNSLRAEDTAVYYCARWFHPWWWWEYLFRGAIDYWGQGTLVTVSS
VL: DIQMTQSPSSLSASVGDRVTITCRASQSVSSAVAWYQQKPGKAPKLLIYSASSLYSGVPSRFSGSRSGTDFTLTISSLQPEDFATYYCQQSSSSLITFGQGTKVEIK
For the molecule B1, in assay [1], the Kd is 2.78 µM and the koff was determined as 0.11 s⁻¹.

B2: COP-1 synthetic antibody fragment (sFab) with C-terminal histidine tag (Fab, V domains shown)
VH: B1 VH
VL: B1 VL
For B2, the binding result with human occludin was “no binding (tested: 500 nM)”; in assay [2] it was “no binding”. For the same molecule, the Kd with human claudin-5 [3] is 0.072 µM and 0.0655 µM; in the assay with human claudin-6 [4] it was 0.059 ± 0.0009 µM; in the assay with human claudin-9 [5] it was 0.0699 ± 0.0012 µM; with murine claudin-15 [6] it was 0.0633 µM and 0.0612 µM; with human claudin-17 [7], 0.0655 ± 0.0009 µM; in assay [8], 0.0834 µM and 0.0567 µM. Also, the Kd in assay [9] is 0.0628 µM and 0.0556 µM; with human claudin-19 [10], 0.0624 ± 0.0011 µM; with human claudin-1 [11], 0.0763 µM and 0.0732 µM; with human claudin-3 [12], 0.0642 ± 0.0011 µM; with murine claudin-3, 0.0905 ± 0.0012 µM; in the assay with human claudin-4 [13], 0.0728 ± 0.0009 µM. Besides, the Kd came to 0.0996 ± 0.0012 µM with murine claudin-4 [14]; 0.0758 ± 0.0005 µM with human claudin-5 [15]; 0.0595 ± 0.0004 µM in the assay with human claudin-6 [16]; 0.066 ± 0.0004 µM in the assay with human claudin-9 [17]; 0.059 ± 0.0005 µM in the assay with murine claudin-15 [18]; 0.0802 ± 0.0006 µM in the assay with human claudin-17 [19]. In addition, the Kd in assay [20] stood at 0.0924 ± 0.0005 µM; in [21], 0.0664 ± 0.0005 µM; with human claudin-19 [22] it was 0.0622 ± 0.0004 µM; in assay [23] it was 0.1095 ± 0.0008 µM; in assay [24], 0.238 ± 0.0029 µM; in the assay with human claudin-1 [25], 0.0613 ± 0.0005 µM. Moreover, the Kd with human claudin-3 [26] is 0.0579 ± 0.0005 µM; with human claudin-4 [27], 0.0706 µM and 0.106 µM. The koff with human claudin-5 [15] came out at 0.0015 s⁻¹; in the assay with human claudin-6 [16], 0.0011 s⁻¹; in the assay with human claudin-9 [17], 0.0015 s⁻¹; with murine claudin-15 [18], 0.0012 s⁻¹; with human claudin-17 [19], 0.0015 s⁻¹; in assay [20], 0.0014 s⁻¹. Further, the koff in [21] was determined as 0.0009 s⁻¹; with human claudin-19 [22] it was 0.0011 s⁻¹; in assay [23], 0.002 s⁻¹; in assay [24] it was 0.0044 s⁻¹; with human claudin-1 [25] it was 0.0009 s⁻¹; with human claudin-3 [26], 0.0012 s⁻¹. The on-rate constant (kon) in the assay with human claudin-5 [15] was 19000 M⁻¹ s⁻¹; in the assay with human claudin-6 [16], 18000 M⁻¹ s⁻¹; with human claudin-9 [17], 22000 M⁻¹ s⁻¹; with murine claudin-15 [18] it was 21000 M⁻¹ s⁻¹; with human claudin-17 [19], 19000 M⁻¹ s⁻¹; in assay [20], 16000 M⁻¹ s⁻¹. Moreover, the kon in assay [21] amounted to 13000 M⁻¹ s⁻¹; with human claudin-19 [22], 17000 M⁻¹ s⁻¹; in assay [23] it was 18000 M⁻¹ s⁻¹; in [24], 18000 M⁻¹ s⁻¹; with human claudin-1 [25] it was 15000 M⁻¹ s⁻¹; with human claudin-3 [26] it was 21000 M⁻¹ s⁻¹. In addition, the t1/2 with human claudin-5 [15] came to 7.7 min; with human claudin-6 [16], 10.5 min; with human claudin-9 [17], 7.7 min; with murine claudin-15 [18], 9.6 min; with human claudin-17 [19], 7.7 min; in [20], 8.3 min. Besides, the t1/2 in assay [21] stood at 12.8 min; in the assay with human claudin-19 [22], 10.5 min; in [23] it was 5.8 min; in assay [24], 2.7 min; with human claudin-1 [25], 12.8 min; with human claudin-3 [26] it was 9.6 min.

B3: C-terminal domain of Clostridium perfringens enterotoxin, histidine-tagged (domain or fragment)
chain: EILDLAAATERLNLTDALNSNPAGNLYDWRSSNSYPWTQKLNLHLTITATGQKYRILASKIVDFNIYSNNFNNLVKLEQSLGDGVKDHYVDISLDAGQYVLVMKANSSYSGNYPYSILFQKF
With B3, the dissociation constant Kd with human claudin-6 [28] was 0.0514 µM; with human claudin-9 [29], below 0.02 µM; with human claudin-17 [30], 0.027 µM; with human claudin-19 [31], 0.0275 µM; in the assay with murine claudin-4 [32] it was below 0.02 µM.

(Values after paper PMC12198772 (PNAS Nexus, 2025).)
